According to article PMC4039369, “Nucleotide degradation and ribose salvage in yeast” (Molecular Systems Biology, 2013):

B1: Sdt1 (Saccharomyces cerevisiae S288C) (protein)
chain: MTVEYTASDLATYQNEVNEQIAKNKAHLESLTHPGSKVTFPIDQDISATPQNPNLKVFFFDIDNCLYKSSTRIHDLMQQSILRFFQTHLKLSPEDAHVLNNSYYKEYGLAIRGLVMFHKVNALEYNRLVDDSLPLQDILKPDIPLRNMLLRLRQSGKIDKLWLFTNAYKNHAIRCLRLLGIADLFDGLTYCDYSRTDTLVCKPHVKAFEKAMKESGLARYENAYFIDDSGKNIETGIKLGMKTCIHLVENEVNEILGQTPEGAIVISDILELPHVVSDLF
B2: Phm8 (Saccharomyces cerevisiae S288C) (protein)
chain: MTIAKDYRTIYRNQIKKQIRLNQEHLQSLTHLGSQINFEVDPPKLPDPDPARKVFFFDIDNTLYRKSTKVQLLMQQSLSNFFKYELGFDDDEAERLIESYYQEYGLSVKGLIKNKQIDDVLQYNTFIDDSLPLQDYLKPDWKLRELLINLKKKKLGKFDKLWLFTNSYKNHAIRCVKILGIADLFDGITYCHYDRPIEEEFICKPDPKFFETAKLQSGLSSFANAWFIDDNESNVRSALSMGMGHVIHLIEDYQYESENIVTKDHKNKQQFSILKDILEIPLIMDVEVYRPSSIAIKEMEELEEEGEAVNWSNQQINVQSS

Assays:
[1] = substrate: Nc1ccn([C@@H]2O[C@H](COP(=O)(O)O)[C@@H](O)[C@H]2O)c(=O)n1; experiment: phosphate release (phosphatase) assay, Michaelis-Menten fit; type: biochemical, Saccharomyces cerevisiae; details: 5 mM MgCl2; substrate range 0.001-9.5 mM
Description: phosphate release (phosphatase) assay, Michaelis-Menten fit on Sdt1 | Kinetic characterization of Phm8 and Sdt1 toward their most preferred substrate CMP

[2] = substrate: Nc1ccn([C@@H]2O[C@H](COP(=O)(O)O)[C@@H](O)[C@H]2O)c(=O)n1; experiment: as above; type: biochemical, Saccharomyces cerevisiae; details: 5 mM MgCl2; substrate range 0.001-9.5 mM; remark: listed apart in the source
Description: phosphate release (phosphatase) assay, Michaelis-Menten fit on Phm8 | Kinetic characterization of Phm8 and Sdt1 toward their most preferred substrate CMP

| Protein | Km [1] [µM] | kcat [1] [s⁻¹] | Km [2] [µM] | kcat [2] [s⁻¹] |
| --- | --- | --- | --- | --- |
| B1 | 1700 ± 200 | 0.54 ± 0.02 | – | – |
| B2 | – | – | 63 ± 2 | 19.8 ± 0.1 |
